Data taken from US20230049152A1.

Target: human CCR8 (human) (UniProt P51685)
Assay: cell-based or functional assay

B1: murine anti-human CCR8 mAb 433H (BD Biosciences) (antibody, from another filing, mouse IgG2a, V domains shown)
VH: EVQLVETGGGLVQPKGSLRLSCAASGFPFNTFAMNWVRQAPGKGLEWLARIRSKSNNYATYYADSVKDRFTISRDDSRRMLYLLMNNVKFEDTAIYYCVRGKENNYGYAMDYWGQGTSVTVSS
VL: DIVMTQAAPSVPVTPGESVSISCRSSQSLLHSNGNTYLYWFLQRPGQSPQLLIYRMSNLASGVPDRFSGSGSGTAFTLRISRVEAEDVGVYYCMQHLEYPFTFGIGTKLELKR
B1 was tested, and the ADCC reporter EC50, mFcgRIV Jurkat cells with CHO/hCCR8 (FIG. 11D) was 0.26 nM, the CCL1 blocking potency IC50, Ca2+ influx was 17.6 nM and the induction fold at about 1 nM antibody, mFcgRIV Jurkat NFAT-luciferase reporter was > 12 fold. It also gave an induction fold plateau at about 40 nM antibody, mFcgRIV Jurkat NFAT-luciferase reporter of 13 fold.
